Experimental data from patent publication US20240400614A1, “CLEAVABLE PEPTIDES AND METHODS OF USE THEREOF” (Bright Peak Therapeutics AG, priority 2023, published 2024).
Square brackets hold non-standard residues; d marks the D form. Ends that are not written are not given here. Tyr(3-NO2) = N[C@@H](Cc1ccc(O)c([N+](=O)[O-])c1)C(=O)O; Nle = CCCC[C@H](N)C(=O)O; 2Abz = Nc1ccccc1C(=O)O

Experiments:
Type in all cases: biochemical
[1] = target: T1, matriptase (Homo sapiens, UniProt Q9Y5Y6); assay: FRET peptide cleavage efficiency with matriptase
T1 construct: purchased R&D Systems 3946-SEB
T1 sequence (Q9Y5Y6 615-855 limits assumed): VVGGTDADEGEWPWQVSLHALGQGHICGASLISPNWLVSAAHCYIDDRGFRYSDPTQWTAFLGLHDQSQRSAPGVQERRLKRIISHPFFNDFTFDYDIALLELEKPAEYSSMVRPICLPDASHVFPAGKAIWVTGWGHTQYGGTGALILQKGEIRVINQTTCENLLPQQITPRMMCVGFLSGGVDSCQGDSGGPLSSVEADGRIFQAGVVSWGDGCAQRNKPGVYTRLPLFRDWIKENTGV

[2] = target: T2, MMP-7 (Homo sapiens, UniProt P09237); assay: FRET peptide cleavage efficiency with MMP-7 (standard pH 7.5; also pH 6.5)
T2 construct: purchased SIGMA CC1059
T2 sequence (P09237 95-267): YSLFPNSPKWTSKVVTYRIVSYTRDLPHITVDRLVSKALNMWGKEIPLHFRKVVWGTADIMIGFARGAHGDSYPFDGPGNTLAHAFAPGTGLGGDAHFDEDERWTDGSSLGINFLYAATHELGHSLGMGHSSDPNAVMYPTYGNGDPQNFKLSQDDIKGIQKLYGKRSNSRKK

[3] = target: uPA (Homo sapiens, UniProt P00749); assay: FRET peptide cleavage efficiency with uPA
[4] = target: T3, MMP-9 (Homo sapiens, UniProt P14780); assay: FRET peptide cleavage efficiency with MMP-9 (standard pH 7.5; also pH 6.5)
T3 construct: purchased SIGMA PF024

[5] = target: T4, MMP-2 (Homo sapiens, UniProt P08253); assay: FRET peptide cleavage efficiency with MMP-2
T4 construct: purchased SIGMA PF023
T4 sequence (P08253 110-660): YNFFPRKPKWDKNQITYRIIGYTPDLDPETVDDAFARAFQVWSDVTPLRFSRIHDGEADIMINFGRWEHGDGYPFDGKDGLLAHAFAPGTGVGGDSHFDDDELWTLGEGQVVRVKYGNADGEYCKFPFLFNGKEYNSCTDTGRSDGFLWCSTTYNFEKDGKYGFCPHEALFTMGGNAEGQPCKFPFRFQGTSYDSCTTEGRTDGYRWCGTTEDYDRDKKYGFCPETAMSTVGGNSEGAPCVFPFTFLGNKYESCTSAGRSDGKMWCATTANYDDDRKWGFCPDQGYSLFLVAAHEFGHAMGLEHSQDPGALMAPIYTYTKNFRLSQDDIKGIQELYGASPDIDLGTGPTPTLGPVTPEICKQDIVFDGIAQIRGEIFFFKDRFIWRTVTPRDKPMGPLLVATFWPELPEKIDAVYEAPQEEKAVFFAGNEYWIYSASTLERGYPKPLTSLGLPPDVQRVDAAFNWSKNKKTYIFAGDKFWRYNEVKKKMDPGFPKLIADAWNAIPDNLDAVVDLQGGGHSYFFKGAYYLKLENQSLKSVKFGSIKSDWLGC

[6] = t = 15 min, standard conditions (Table 8)
[7] = t = 60 min, standard conditions (Table 8)
[8] = t = 120 min, standard conditions (Table 8)
[9] = 200 uM linker, 1 ug/ml protease, 37° C., buffer B pH 9.0
[10] = 200 uM linker, 1 ug/ml protease, 37° C., buffer A pH 8.5

T3 sequence (P14780 94-707): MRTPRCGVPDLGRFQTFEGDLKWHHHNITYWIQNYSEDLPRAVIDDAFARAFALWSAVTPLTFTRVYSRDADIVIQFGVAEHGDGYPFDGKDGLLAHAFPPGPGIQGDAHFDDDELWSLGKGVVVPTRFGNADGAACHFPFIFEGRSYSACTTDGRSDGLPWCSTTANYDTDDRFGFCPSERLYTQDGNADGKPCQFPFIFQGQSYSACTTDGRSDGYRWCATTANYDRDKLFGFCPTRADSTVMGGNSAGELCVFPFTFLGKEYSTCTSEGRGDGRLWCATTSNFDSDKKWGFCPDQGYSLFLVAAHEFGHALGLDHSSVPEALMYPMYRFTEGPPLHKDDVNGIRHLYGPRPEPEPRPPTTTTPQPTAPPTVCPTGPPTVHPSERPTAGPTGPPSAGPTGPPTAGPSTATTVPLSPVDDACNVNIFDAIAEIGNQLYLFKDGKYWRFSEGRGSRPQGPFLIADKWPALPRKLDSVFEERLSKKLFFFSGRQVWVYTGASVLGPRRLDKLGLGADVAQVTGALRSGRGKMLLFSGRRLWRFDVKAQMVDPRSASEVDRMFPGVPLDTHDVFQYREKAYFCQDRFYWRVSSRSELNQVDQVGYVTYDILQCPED

| Substance | % cleavage Matriptase t = 15 min ([1]; standard conditions (Table 8)) [%] | % cleavage Matriptase t = 60 min ([1]; standard conditions (Table 8)) [%] | % cleavage Matriptase t = 120 min ([1]; standard conditions (Table 8)) [%] | % cleavage MMP-7 t = 15 min ([2]; t = 15 min (Table 9)) [%] | % cleavage MMP-7 t = 15 min [2, 6] [%] | % cleavage MMP-7 t = 60 min ([2]; t = 60 min (Table 9)) [%] | % cleavage MMP-7 t = 60 min [2, 7] [%] | % cleavage MMP-7 t = 120 min ([2]; t = 120 min (Table 9)) [%] | % cleavage MMP-7 t = 120 min [2, 8] [%] | % vcleavage uPA t = 15 min [3, 6] [%] | % cleavage uPA t = 60 min ([3]; standard conditions (Table 8)) [%] | % cleavage uPA t = 120 min ([3]; standard conditions (Table 8)) [%] | % cleavage MMP-9 t = 15 min ([4]; t = 15 min (Table 9)) [%] | % cleavage MMP-9 t = 15 min [4, 6] [%] | % cleavage MMP-9 t = 60 min ([4]; t = 60 min (Table 9)) [%] | % cleavage MMP-9 t = 60 min [4, 7] [%] | % cleavage MMP-9 t = 120 min ([4]; t = 120 min (Table 9)) [%] | % cleavage MMP-2 t = 15 min ([5]; t = 15 min (Table 9)) [%] | % cleavage MMP-2 t = 60 min ([5]; t = 60 min (Table 9)) [%] | % cleavage MMP-2 t = 120 min ([5]; t = 120 min (Table 9)) [%] | other results |
| --- | --- | --- | --- | --- | --- | --- | --- | --- | --- | --- | --- | --- | --- | --- | --- | --- | --- | --- | --- | --- | --- |
| SGRVAPY-Nle-LQG ([2Abz]SGRVAPY[Nle]LQG[Tyr(3-NO2)]-NH2) [LNK043] | 24 | 73 | 100 | 61 | 61 | 100 | 100 | 100 | 100 | 0 | 0 | 0 | 32 | 32 | 93 | 93 | 100 | 34 | 78 | 91 | % cleavage MMP-9 t = 120 min [4, 8]: 100%; % cleavage MMP-2 t = 60 min [5, 7]: 78%; % cleavage MMP-2 t = 120 min [5, 8]: 91% |
| RGRRGP ([2Abz]RGRRGP[Tyr(3-NO2)]-NH2) [LNK048] | 100 | 100 | 100 | 0 | 0 | 0 | 0 | 0 | 0 | 0 | 0 | 0 | 0 | 0 | 0 | 0 | 0 | 0 | 0 | 0 | % cleavage MMP-9 t = 120 min [4, 8]: 0%; % cleavage MMP-2 t = 60 min [5, 7]: 0%; % cleavage MMP-2 t = 120 min [5, 8]: 0% |
| RGRRAANLVRPLGYFGKL ([2Abz]RGRRAANLVRPLGYFGKL[Tyr(3-NO2)]-NH2) [LNK060] |  |  |  | 0 |  | 0 |  | 0 |  |  |  |  | 32 |  | 100 |  | 100 | 76 | 100 | 100 | % cleavage Matriptase t = 15 min [1, 9]: 90%; % cleavage Matriptase t = 60 min [1, 9]: 100%; % cleavage Matriptase t = 120 min [1, 9]: 100%; % cleavage uPA t = 15 min ([3]; t = 15 min, 200 uM linker, 1 ug/ml protease, 37° C., buffer A pH 8.5): 2%; % cleavage uPA t = 60 min [3, 10]: 11%; % cleavage uPA t = 120 min [3, 10]: 25%; % cleavage MMP-2 t = 15 min ([5]; t = 15 min, 200 uM linker, 1 ug/ml protease, 37° C., buffer C pH 7.5): 76%; % cleavage MMP-2 t = 60 min ([5]; t = 60 min, 200 uM linker, 1 ug/ml protease, 37° C., buffer C pH 7.5): 100%; % cleavage MMP-2 t = 120 min ([5]; t = 120 min, 200 uM linker, 1 ug/ml protease, 37° C., buffer C pH 7.5): 100% |
